These results are taken from paper PMC8368002, “Crystal structure of the INTS3/INTS6 complex reveals the functional importance of INTS3 dimerization in DSB repair” (Cell Discovery, 2020).

B1: C-terminus of INTS6 (INTS6c), residues 800–887 (domain or fragment, human, UniProt Q9UL03 800-887, looked up)
chain: MHCRSHEEVNTELKAQIMKEIRKPGRKYERIFTLLKHVQGSLQTRLIFLQNVIKEASRFKKRMLIEQLENFLDEIHRRANQINHINSN
notes: integrator complex subunit 6 (INTS6), human, residues 800-887; Cloned into pGEX-6p-1
B2: C-terminus of INTS3 (INTS3c), residues 560–905 and 915–995 (domain or fragment, human)
chain 1: TVVEEPVDITPYLDQLDESLRDKVLQLQKGSDTEAQCEVMQEIVDQVLEEDFDSEQLSVLASCLQELFKAHFRGEVLPEEITEESLEESVGKPLYLIFRNLCQMQEDNSSFSLLLDLLSELYQKQPKIGYHLLYYLRASKAAAGKMNLYESFAQATQLGDLHTCLMMDMKACQEDDVRLLCHLTPSIYTEFPDETLRSGELLNMIVAVIDSAQLQELVCHVMMGNLVMFRKDSVLNILIQSLDWETFEQYCAWQLFLAHNIPLETIIPILQHLKYKEHPEALSCLLLQLRREKPSEEMVKMVLSRPCHPDDQFTTSILRHWCMKHDELLAEHIKSLLIKNNSLPRK
chain 2: KLAQLTLEQILEHLDNLRLNLTNTKQNFFSQTPILQALQHVQASCDEAHKMKFSDLFSLAEEYEDSSTKPPKSRRKAALSS
notes: Two polypeptides of one protein, co-expressed; residues 906-914 are absent; A selenomethionine form was used for phasing (2.6 Å); the final structure is of native crystals (2.4 Å); copies: 2 + 2
B3: INTS3(1−995) (domain or fragment, human, UniProt Q68E01 1-995, looked up)
chain: MELQKGKGAAAAAAASGAAGGGGGGAGAGAPGGGRLLLSTSLDAKDELEERLERCMSIVTSMTAGVSEREANDALNAYVCKGLPQHEEICLGLFTLILTEPAQAQKCYRDLALVSRDGMNIVLNKINQILMEKYLKLQDTCRTQLVWLVRELVKSGVLGADGVCMTFMKQIAGGGDVTAKNIWLAESVLDILTEQREWVLKSSILIAMAVYTYLRLIVDHHGTAQLQALRQKEVDFCISLLRERFMECLMIGRDLVRLLQNVARIPEFELLWKDIIHNPQALSPQFTGILQLLQSRTSRKFLACRLTPDMETKLLFMTSRVRFGQQKRYQDWFQRQYLSTPDSQSLRCDLIRYICGVVHPSNEVLSSDILPRWAIIGWLLTTCTSNVAASNAKLALFYDWLFFSPDKDSIMNIEPAILVMHHSMKPHPAITATLLDFMCRIIPNFYPPLEGHVRQGVFSSLNHIVEKRVLAHLAPLFDNPKLDKELRAMLREKFPEFCSSPSPPVEVKIEEPVSMEMDNHMSDKDESCYDNAEAAFSDDEEDLNSKGKKREFRFHPIKETVVEEPVDITPYLDQLDESLRDKVLQLQKGSDTEAQCEVMQEIVDQVLEEDFDSEQLSVLASCLQELFKAHFRGEVLPEEITEESLEESVGKPLYLIFRNLCQMQEDNSSFSLLLDLLSELYQKQPKIGYHLLYYLRASKAAAGKMNLYESFAQATQLGDLHTCLMMDMKACQEDDVRLLCHLTPSIYTEFPDETLRSGELLNMIVAVIDSAQLQELVCHVMMGNLVMFRKDSVLNILIQSLDWETFEQYCAWQLFLAHNIPLETIIPILQHLKYKEHPEALSCLLLQLRREKPSEEMVKMVLSRPCHPDDQFTTSILRHWCMKHDELLAEHIKSLLIKNNSLPRKRQSLRSSSSKLAQLTLEQILEHLDNLRLNLTNTKQNFFSQTPILQALQHVQASCDEAHKMKFSDLFSLAEEYEDSSTKPPKSRRKAALSS
notes: The complex with hSSB1 was held on an NTA chip for SPR with DNA, so one of its chains may carry a His tag; source: co-expressed with hSSB1 and purified

Series [1] deals with B2. The series can be described thus: crystal structure; INTS3c/INTS6c complex from purified parts, crystallised in 1.7 M ammonium citrate tribasic pH 7.0, 4% v/v pentaerythritol ethoxylate; SAD on selenomethionine INTS3c, native data to 2.4 Å. The settings on record: both partners purified.
Series [2] deals with the molecule itself. The description is as above.
Series [3] deals with T1, hSSB1 (human, UniProt Q9BQ15 1-211). Kind of series: EMSA; comparable affinities among the three; EMSA: 50 mM NaCl, 20 mM HEPES pH 7.5, 1 mM MgCl2, 0.5 mM EDTA, 0.2 mM DTT, on ice 1 h; SPR: 200 mM NaCl, 40 mM HEPES pH 7.5, 50 uM EDTA, 25 C. To be noted: protein: recombinant.
T1 sequence (Q9BQ15 whole entry): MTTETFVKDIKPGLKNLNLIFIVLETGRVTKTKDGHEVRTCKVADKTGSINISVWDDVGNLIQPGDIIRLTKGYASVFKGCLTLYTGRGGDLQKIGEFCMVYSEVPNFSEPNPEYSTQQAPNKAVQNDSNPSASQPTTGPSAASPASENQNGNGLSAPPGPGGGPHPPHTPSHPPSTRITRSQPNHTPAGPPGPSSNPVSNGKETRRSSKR
Series [4] addresses T2, INTS3(1-500) (INTS3N);hSSB1 (human;human, UniProt Q68E01-2;Q9BQ15 1-500;1-211, |). The series is described as above. The settings on record: protein: recombinant;recombinant; tags: ;; copies: 1;1.
For series [5], the target named is T3, INTS3(1-995);hSSB1 (human;human, UniProt Q68E01-2;Q9BQ15 1-995;1-211, |). The series is described as above. The settings on record: protein: recombinant;recombinant; tags: ;; chain copies: 2;2.
T3 sequence (Q9BQ15 whole entry, one chain of several): as the sequence (Q9BQ15 whole entry) above
The target of series [6] is T3, INTS3(1-995);hSSB1. The series can be described thus: SPR; KD only in Fig. S5c; EMSA: 50 mM NaCl, 20 mM HEPES pH 7.5, 1 mM MgCl2, 0.5 mM EDTA, 0.2 mM DTT, on ice 1 h; SPR: 200 mM NaCl, 40 mM HEPES pH 7.5, 50 uM EDTA, 25 C. The settings on record: protein: recombinant;recombinant; tags: ;; chain copies: 2;2. In general terms: SPR reads the build-up and loss of mass on a sensor chip optically.

The target of the next series is INTS3 full length;hSSB1 (human;human, UniProt Q68E01-2;Q9BQ15 1-1042;1-211, |). Kind of series: SPR; KD only in Fig. S5d; EMSA: 50 mM NaCl, 20 mM HEPES pH 7.5, 1 mM MgCl2, 0.5 mM EDTA, 0.2 mM DTT, on ice 1 h; SPR: 200 mM NaCl, 40 mM HEPES pH 7.5, 50 uM EDTA, 25 C. The settings on record: protein: recombinant;recombinant; tags: ;; copies: 1;1.
Sequence of INTS3 full length;hSSB1 (Q9BQ15 whole entry, one chain of several): as the sequence (Q9BQ15 whole entry) above
Series [7] addresses T2, INTS3(1-500) (INTS3N);hSSB1. The series can be described thus: SPR; comparable to hSSB1 alone; KD only in Fig. S5b; EMSA: 50 mM NaCl, 20 mM HEPES pH 7.5, 1 mM MgCl2, 0.5 mM EDTA, 0.2 mM DTT, on ice 1 h; SPR: 200 mM NaCl, 40 mM HEPES pH 7.5, 50 uM EDTA, 25 C. To be noted: protein: recombinant;recombinant; tags: ;; copies: 1;1.
Series [8] addresses T1, hSSB1. The series can be described thus: SPR; hSSB1 immobilized; comparable to INTS3(1-500)/hSSB1; KD only in Fig. S5a; EMSA: 50 mM NaCl, 20 mM HEPES pH 7.5, 1 mM MgCl2, 0.5 mM EDTA, 0.2 mM DTT, on ice 1 h; SPR: 200 mM NaCl, 40 mM HEPES pH 7.5, 50 uM EDTA, 25 C. To be noted: protein: recombinant.
The target in a further series is INTS3c (human, UniProt Q68E01-2;Q68E01-2 560-905;915-995). Kind of series: EMSA; INTS3c alone unable to bind ssDNA; method inferred; EMSA: 50 mM NaCl, 20 mM HEPES pH 7.5, 1 mM MgCl2, 0.5 mM EDTA, 0.2 mM DTT, on ice 1 h; SPR: 200 mM NaCl, 40 mM HEPES pH 7.5, 50 uM EDTA, 25 C. To be noted: protein: recombinant; tags: GST removed. Background: Mobility shift assays separate free from complexed probe on a gel.
Sequence of INTS3c (Q68E01 916-996, chain 2 of 2, one chain of several): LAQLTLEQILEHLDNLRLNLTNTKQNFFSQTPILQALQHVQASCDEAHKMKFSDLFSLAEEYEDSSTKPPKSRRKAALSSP

For series [9], the target named is T3, INTS3(1-995);hSSB1. Kind of series: EMSA; 1 mM MgCl2; EMSA: 50 mM NaCl, 20 mM HEPES pH 7.5, 1 mM MgCl2, 0.5 mM EDTA, 0.2 mM DTT, on ice 1 h; SPR: 200 mM NaCl, 40 mM HEPES pH 7.5, 50 uM EDTA, 25 C. To be noted: protein: recombinant;recombinant; tags: ;; chain copies: 2;2; label: 6-FAM (printed 6'-carboxy-fluorescein).
Series [10] deals with INTS3(1-995);hSSB1;INTS6c (human;human;human, UniProt Q68E01-2;Q9BQ15;Q9UL03 1-995;1-211;800-887, ||). Kind of series: EMSA; 1 mM MgCl2; INTS6c 1:1, no effect on binding; EMSA: 50 mM NaCl, 20 mM HEPES pH 7.5, 1 mM MgCl2, 0.5 mM EDTA, 0.2 mM DTT, on ice 1 h; SPR: 200 mM NaCl, 40 mM HEPES pH 7.5, 50 uM EDTA, 25 C. To be noted: protein: recombinant;recombinant;recombinant; tags: ;;GST removed; chain copies: 2;2;2; label: 6-FAM (printed 6'-carboxy-fluorescein).
Sequence of INTS3(1-995);hSSB1;INTS6c (Q9BQ15 whole entry, one chain of several): as the sequence (Q9BQ15 whole entry) above

Series [11] concerns the molecule itself. Kind of series: SEC; analytical size-exclusion chromatography of co-expressed and purified INTS3-hSSB1 complexes (Supplementary Fig. S2).

As usually defined, the stoichiometry N is the number of molecules, sites or subunits per partner or assembly.

T2 sequence (Q9BQ15 whole entry, one chain of several): as the sequence (Q9BQ15 whole entry) above

For B1, the “stoichiometry N” value in series [1] was 2 INTS3c:INTS6c.
For the molecule B2, the “stoichiometry N” value in series [2] worked out at 2.
Take TTTTTTTTTTTT (ssDNA) [dT12]: the binding result (with hSSB1 [3]; in series [4]; with INTS3(1-995);hSSB1 [5]) was “binds” throughout.
Regarding TTTTTTTTTTTTTTTTTTTTTTTTTTTTTTTTTTTTTTTTTTTTTTTT (ssDNA) [dT48], the binding result (with INTS3(1-995);hSSB1 [6]; with INTS3 full length;hSSB1; in series [7]; with hSSB1 [8]) was “binds” each time.
Regarding TTTTTTTTTTTTTTTTTTTTTTTTTTTTTTTTTTTTTTTTTTTTTTTT (ssDNA) [ssDNA of Fig. S4d], the binding result in the series with INTS3c is on record as “no binding”.
Turning to TTTTTTTTTTTTTTTTTTTTTTTTTTTTTTTTTTTTTTTTTTTTTTTT (ssDNA) [dT48 (FAM)], the binding result (with INTS3(1-995);hSSB1 [9]; in series [10]) was “binds” throughout.
For the molecule B3, the “stoichiometry N” value in series [11] was determined as 2.
